What was measured:
[1] = target: T1, cynomolgus monkey CD40 on transiently transfected 293F cells (cynomolgus monkey, UniProt G7PG38 21-278); assay: FACS on 293F cells transiently transfected with cynomolgus monkey CD40
T1 construct: whole, on cells; also called cell surface cynomolgus monkey CD40
Experimental: Cynomolgus monkey CD40 transiently transfected 293F cells (2×10⁵ cells/well) were incubated with various concentrations of W3525 (3-fold serially diluted from 200 nM to 0.0102 nM) at 4° C. for 1 hour. After washing with 1×PBS/1% BSA, a secondary antibody, R-PE-labeled goat anti-human IgG (1:150) was added and incubated with cells at 4° C. in dark for 1 hour. The cells were washed and suspended and the MFI and EC50 values were determined as described above.

[2] = target: T2, human CD40, full-length, on cells (human, UniProt P25942 21-277); assay: cell-based or functional assay
T2 sequence (P25942 21-277): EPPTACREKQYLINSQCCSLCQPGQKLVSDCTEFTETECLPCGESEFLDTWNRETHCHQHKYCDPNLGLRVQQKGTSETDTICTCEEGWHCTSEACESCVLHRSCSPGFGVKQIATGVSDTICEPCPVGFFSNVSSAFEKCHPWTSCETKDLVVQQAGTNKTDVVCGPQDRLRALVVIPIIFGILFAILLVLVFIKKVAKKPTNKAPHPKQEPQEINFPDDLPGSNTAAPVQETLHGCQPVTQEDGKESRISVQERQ

[3] = target: T3, W352-hPro1.ECD.His (human, UniProt P25942 21-193); assay: SPR, Biacore 8K; antibody captured by goat anti-human Fc; analyte W352-hPro1.ECD.His; 1:1 model
T3 construct: range 21-193; Also used for the 'recombinant human CD40 extracellular domain' coated in the ELISAs of 3.4 and 3.5; also called Human CD40 extracellular domain, His tag; human CD40 free protein; not shown: His tag
T3 sequence (P25942 21-193 limits assumed): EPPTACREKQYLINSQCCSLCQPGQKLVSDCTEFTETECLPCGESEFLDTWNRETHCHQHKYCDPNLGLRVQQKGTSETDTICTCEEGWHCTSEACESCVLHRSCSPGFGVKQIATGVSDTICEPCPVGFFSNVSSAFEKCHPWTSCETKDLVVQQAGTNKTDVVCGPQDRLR
Experimental: The affinity of W3525 to human CD40 was determined using Biacore 8K. The activator was prepared by mixing 400 mM EDC and 100 mM NHS immediately prior to injection. The CMS sensor chip was activated for 420 s with the activator at a flow rate of 10 μL/min. Goat anti-human Fc IgG (30 μg/mL in 10 mM NaAc, pH 4.5) was then injected to the channels for 420 s at a flow rate of 10 μL/min The chip was deactivated by 1 M ethanolamine-HCl at a flow rate of 10 μL/min for 420 s. After immobilization, the antibody W3525 was diluted to 66.7 nM in running buffer (1×HBS-EP+) and was captured onto the channel Fc4 at a flow rate of 10 μL/min for 30 s. Seven concentrations (0, 1.5625, 3.125, 6.25, 12.5, 25 and 50 nM) of analyte W352-hPro1.ECD.His were injected orderly to the channels at a flow rate of 30 μL/min for an association phase of 90 s, followed by 300 s dissociation. Glycine solution (10 mM, pH 1.5) as regeneration buffer was injected following dissociation phase to regenerate the chip.
Molecular weight of 29 kDa was used to calculate the molar concentration of W352-hPro1.ECD.His.

[4] = target: T2, human CD40, full-length, on cells; assay: FACS on Raji cells (human CD40 binding assay); Raji cells
Experimental: (§1) W352-CHOK1.hPro1.A7 (1×10⁵ cells/well), Raji (1×10⁵ cells/well) or A431 (5×10⁴ cells/well) cells were incubated with various concentrations of W3525 antibody (3-fold serially diluted from 100 nM to 0.0051 nM, or 5-fold serially diluted from 100 nM to 0.00128 nM) at 4° C. for 1 hour. After washing with 1×PBS/1% BSA, the secondary antibody, Alex647-labeled goat anti-human IgG (1:250) or R-PE-labeled goat anti-human IgG (1:150) was added and incubated with cells at 4° C. in dark for 1 hour. Anti-human CD40 antibodies BMK4 and BMK5 were used as positive controls. Human IgG1 and IgG2 isotype antibodies were used as isotype controls. The cells were then washed and re-suspended in 1×PBS/1% BSA. MFI of the cells was measured by a flow cytometer and analyzed by FlowJo. GraphPad Prism was used to plot the log of antibody concentration (x-axis) versus MFI (y-axis). The EC50 values were determined using four-parameter dose-response curve model.
(§2) The binding result of W3525 on W352-CHOK1.hPro1.A7, Raji and A431 cells are shown in FIGS. 1, 2 and 3, respectively.

[5] = target: T2, human CD40, full-length, on cells; assay: FACS on A431 cells (human CD40 binding assay); A431 cells
Experimental: as §1, §2

[6] = target: T4, W352-cynoPro1.ECD.His (cynomolgus monkey, UniProt G7PG38 21-193); assay: SPR, Biacore T200; antibody captured by goat anti-human Fc; analyte W352-cynoPro1.ECD.His
T4 construct: range 21-193; Also used for the 'recombinant cynomolgus monkey CD40 extracellular domain' coated in the ELISA of 3.5; also called Cynomolgus monkey CD40 extracellular domain, His tag; W352-cPro1.ECD.His; not shown: His tag
Experimental: The affinity of W3525 to cynomolgus monkey CD40 was determined using Biacore T200. The process of immobilization was the same as that of Biacore 8K. The antibody W3525 was diluted to 33.35 nM in running buffer (1×HBS-EP+) and was captured onto Fc2 at a flow rate of 10 μL/min for 60 s. Seven concentrations (0, 1.56, 3.13, 6.25, 12.5, 25 and 50 nM) of analyte W352-cynoPro1.ECD.His were injected orderly to Fc1 and Fc2 at a flow rate of 30 μL/min for an association phase of 240 s, followed by 300 s dissociation. After each cycle, glycine solution (10 mM, pH 1.5) as regeneration buffer was injected to regenerate the chip.
Molecular weight of 29 kDa was used to calculate the molar concentration of W352-cPro1.ECD.His.

[7] = target: T2, human CD40, full-length, on cells; assay: cell-based or functional assay; remark: listed apart in the source
[8] = target: T2, human CD40, full-length, on cells; assay: FACS competition on W352-CHOK1.hPro1.A7 cells; competitor W352-hpro1L1.ECD.mFc at 5 ug/mL
Experimental: W352-CHOK1.hPro1.A7 cells were plated in a 96-well plate at a density of 1×10⁵ cells/well. A constant concentration of W352-hPro1L1.EECD.mFc (5 μg/mL) diluted in 1×PBS/1% BSA was added to the cells, followed by serially diluted antibodies (3-fold serially diluted from 60 nM to 0.0274 nM in 1×PBS/1% BSA), and mixed well. The plate was incubated at 4° C. for 1 hour.

[9] = target: T5, W352-mPro1.ECD.His (mouse, UniProt P27512 20-193); assay: ELISA, plate coated with 1 ug/mL recombinant CD40 extracellular domain
T5 construct: range 20-193; The ELISA of 3.5 says only 'recombinant mouse CD40 extracellular domain'; also called Mouse CD40 extracellular domain, His tag; mouse CD40; not shown: His tag
T5 sequence (P27512 20-193 limits assumed): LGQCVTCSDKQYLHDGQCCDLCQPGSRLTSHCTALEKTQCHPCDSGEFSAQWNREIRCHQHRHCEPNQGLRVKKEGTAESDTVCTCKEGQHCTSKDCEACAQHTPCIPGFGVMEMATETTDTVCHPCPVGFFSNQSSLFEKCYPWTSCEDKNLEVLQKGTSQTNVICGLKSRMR
Experimental: (§3) Plate was pre-coated with 1 μg/mL of recombinant human CD40, OX40, 4-1BB, GITR or BCMA extracellular domain in 100 μL coating buffer (0.02 M Na₂CO₃ and 0.18 M NaHCO₃, pH9.2) per well at 4° C. overnight. Next day, the plate was washed with 1×PBST for one time. After 1-hour blocking using 200 μL of 1×PBS/2% BSA, the plate was washed using 1×PBST for 3 times. W3525 was added to the plate at a concentration of 66.7 nM and incubated at ambient temperature for 1 hour. Anti-CD40 antibodies BMK4 and BMK5, anti-OX40 antibody MEDI0562, anti-4-1BB antibody BMS-663513, anti-GITR antibody INCAGN01876 and anti-BCMA antibody EM801 were used as positive controls, respectively. Human IgG2 isotype antibody was used as isotype control. After incubation, the plate was washed using 1×PBST for 3 times. HRP-labeled goat anti-human IgG antibody diluted in 1×PBS/2% BSA at a ratio of 1:5000 was added and incubated for 1 hour. After washing with 1×PBST for 6 times, the color was developed by dispensing 100 μL of TMB substrate, and then reaction was stopped by adding 100 μL of 2M HCl. Absorbance was read at 450 nm and 540 nm using a microplate spectrophotometer. GraphPad Prism was used to plot the antibody concentration (x-axis) versus absorbance (y-axis). All samples were tested in duplicate.
(§4) Plate was pre-coated with 1 μg/mL of recombinant human, cynomolgus monkey, mouse, canine or rat CD40 extracellular domain in 100 μL coating buffer per well at 4° C. overnight. Then the ELISA procedure was performed as described above. Anti-human CD40 antibodies BMK4 and BMK5 were used as positive controls. Human IgG1 and IgG2 isotype antibodies were used as isotype controls.

[10] = target: T6, CD40 protein, rat, recombinant (His tag) (rat, UniProt A6JXD6 20-193); assay: as above
T6 construct: Bought protein; also called rat CD40; not shown: C-terminal His tag of the vendor's construct (SinoBiological 80151-R08H)
T6 sequence: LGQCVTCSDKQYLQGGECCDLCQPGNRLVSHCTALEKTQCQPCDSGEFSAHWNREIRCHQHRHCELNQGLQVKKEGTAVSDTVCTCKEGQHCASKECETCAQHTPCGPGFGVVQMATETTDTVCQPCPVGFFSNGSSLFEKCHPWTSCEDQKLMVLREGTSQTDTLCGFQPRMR
Experimental: as §3, §4

[11] = target: T7, CD40 protein, canine, recombinant (His tag) (canine, UniProt Q7YRL5 21-194); assay: as above
T7 construct: extracellular domain; Bought protein; also called canine CD40
T7 sequence (looked up): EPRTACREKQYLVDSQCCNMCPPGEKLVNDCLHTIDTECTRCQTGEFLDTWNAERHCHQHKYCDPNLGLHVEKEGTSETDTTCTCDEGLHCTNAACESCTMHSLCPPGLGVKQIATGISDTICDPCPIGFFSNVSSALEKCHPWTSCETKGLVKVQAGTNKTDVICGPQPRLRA
Experimental: as §3, §4

[12] = target: T2, human CD40, full-length, on cells; assay: cell-based or functional assay; remark: listed apart in the source
[13] = target: T8, Human GITR protein (His tag, ECD) (human, UniProt Q9Y5U5 26-162); assay: ELISA, plate coated with 1 ug/mL recombinant extracellular domain
T8 construct: extracellular domain; Bought protein
T8 sequence (looked up): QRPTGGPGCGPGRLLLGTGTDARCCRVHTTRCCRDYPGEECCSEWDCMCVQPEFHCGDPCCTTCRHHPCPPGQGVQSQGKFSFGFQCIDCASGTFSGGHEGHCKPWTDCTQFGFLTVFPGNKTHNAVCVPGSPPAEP
Experimental: as §3

[14] = target: T9, recombinant human BCMA extracellular domain (human, UniProt Q02223 1-54); assay: as above
T9 construct: extracellular domain
T9 sequence (looked up): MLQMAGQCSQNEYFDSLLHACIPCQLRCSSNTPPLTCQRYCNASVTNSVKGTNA
Experimental: as §3

[15] = target: T10, recombinant human 4-1BB extracellular domain (human, UniProt Q07011 24-186); assay: as above
T10 construct: extracellular domain
T10 sequence (Q07011 24-186): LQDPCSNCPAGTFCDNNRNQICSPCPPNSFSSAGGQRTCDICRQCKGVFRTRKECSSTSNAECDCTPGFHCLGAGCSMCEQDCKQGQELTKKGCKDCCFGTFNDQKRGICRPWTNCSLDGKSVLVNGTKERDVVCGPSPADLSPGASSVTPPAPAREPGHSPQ
Experimental: as §3

[16] = target: T11, recombinant human OX40 extracellular domain (human, UniProt P43489 29-214); assay: as above
T11 construct: extracellular domain
T11 sequence (looked up): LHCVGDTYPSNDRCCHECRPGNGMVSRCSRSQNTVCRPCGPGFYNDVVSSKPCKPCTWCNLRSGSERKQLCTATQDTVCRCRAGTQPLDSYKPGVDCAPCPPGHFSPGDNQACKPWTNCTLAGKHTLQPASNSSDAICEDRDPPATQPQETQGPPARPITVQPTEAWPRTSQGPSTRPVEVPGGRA
Experimental: as §3

[17] = target: T2, human CD40, full-length, on cells; assay: FACS on W352-CHOK1.hPro1.A7 cells (CHO-K1 with full-length human CD40); W352-CHOK1.hPro1.A7 cells
Experimental: as §1, §2

B1: W3525-1.9.16-P5-uIgG2K (antibody, V domains shown)
VH: QVQLVQSGAEVKKPGSSVKVSCKASGDTVSSYGISWVRQAPGQGLEWMGGSIPFFGTPNYAQKFQGRVTFTADESTSTAYMELSSLRSEDTAVYYCARARRGYSYGHYHYYAMDVWGQGTTVTVAS
VL: DTVMTQSPLSLPVTPGEPASISCRSGQSLLHNNAYNYLDWYLQKPGQSPQLLIYLGSNRASGVPDRFSGSGSGTDFTLKISRVEAEDVGVYYCMQALQTPLSFGGGTKVEIKR
notes: Fully human IgG2 kappa with wild-type human IgG2 constant region; also called W3525 antibody; final lead antibody
[1]
  EC50: 2.4 nM
[2]
  EC50, B cell proliferation: 0.16 nM
[3]
  Kd: 7.12 nM
  koff: 0.00405 s⁻¹
  kon: 569000 M⁻¹ s⁻¹
[4]
  EC50: 0.36 nM
[5]
  EC50: 0.16 nM
[6]
  Kd: 8.47 nM
  koff: 0.00377 s⁻¹
  kon: 444000 M⁻¹ s⁻¹
[7]
  EC50, NFκB reporter assay, W352-Ramos.NFκBRE.luc: 1.4 nM
  EC50, NFκB reporter assay, W352-U937.hPro1.NFκBRE.luc: 1.3 nM
[8]
  IC50: 1.4 nM
[9]
  binding result: no binding
[10]
  binding result: no binding
[11]
  binding result: no binding
[12]
  EC50, CD54 expression, DC activation assay: 0.35 nM
  EC50, CD80 expression, DC activation assay: 0.37 nM
  EC50, CD83 expression, DC activation assay: 0.16 nM
  EC50, CD86 expression, DC activation assay: 0.56 nM
  EC50, IL-12p40 release, DC activation assay: 0.47 nM
[13]
  binding result: no binding (tested: 66.7 nM)
[14]
  binding result: no binding (tested: 66.7 nM)
[15]
  binding result: no binding (tested: 66.7 nM)
[16]
  binding result: no binding (tested: 66.7 nM)
[17]
  EC50: 1.1 nM
